Target: Ku70 (endogenous full length protein of the human HEK 293 reporter cells) (UniProt P12956)
Experiment: cell-based or functional assay

- fold increase of homologous recombination in 293Rab-Rep#4 reporter cells against transfection without the Ku80 fragment: 2 fold
Substance: truncated Ku80 protein, residues 427-732 of mouse Ku80, expressed from pCAG-Ku80(427-732)-bpA (from UniProt P27641 427-732)

From patent US20140304847A1
